Sequences and labels used below:
B1: anti-uPAR recombinant antibody 11857 (mouse/human chimeric IgG1) (antibody, V domains shown)
VH: EVQLRQSGPELVKPGASVKISCKASGYTFTDYYMNWVKQSHEKSLEWIGNINPNNGGTDYNQKFKGKATLTVDKSSSTAYMELRSLTSEDSAVYYCARSYGSRFPYWGLGTLVTVSA
VL: DIQMTQTTSSLSASLGDRVTISCRASQDITNYLSWYQQKPDGTVKLLIFYTAVLQSGFPLRFSGSGSGADYSLTISNLEQEDFATYFCQQGHTLPWTFGGGTKLEIK
B2: anti-uPAR recombinant antibody 3159 (mouse/human chimeric IgG1) (antibody, V domains shown)
VH: QVTLKESGPGILQSSLTLSLTCSLSGFSLSTSGMGVSWIRQPSGKGLEWLAHIYWDDDKRYNPSLKTRLTISKDASRDQVFLKIISVDTADTGTYYCGRRVRNYFSGTSYWYFDVWGTGTTVTVSS
VL: DVLMTQTPLSLSVSLGDQASISCRSSQNILHRTGNTYLEWYLQKPGQSPKLLIYKVSNRFSGVPDRFSGSGSGTDFTLKISRLEAEDLGVYYCFQGSYVPFTFGSGTKLEMK
B3: anti-uPAR recombinant antibody 8163 (mouse/human chimeric IgG1) (antibody, V domains shown)
VH: EVQLVESGGGLVQPGESLTLSCDSNEFDFPSHDMSWVRKTPEKRLELVAAIDSDGGLTYYSNSRERRFIISRDNTKNTLYLQMRSLRSEDTALYYCARRRASYWYFDVWGTGTTVTVSS
VL: DILLTQSPAILPVSPGERVSFSCRASQNIGTSIHWYQQRTNGSPRLLIKYASESISGIPSRFSGSGSGTDFTLSINGVESEDIGDYYCQQSNSWPTFGGGTKLEIK

Chain of cynomolgus monkey uPAR (Q9GK78 23-305): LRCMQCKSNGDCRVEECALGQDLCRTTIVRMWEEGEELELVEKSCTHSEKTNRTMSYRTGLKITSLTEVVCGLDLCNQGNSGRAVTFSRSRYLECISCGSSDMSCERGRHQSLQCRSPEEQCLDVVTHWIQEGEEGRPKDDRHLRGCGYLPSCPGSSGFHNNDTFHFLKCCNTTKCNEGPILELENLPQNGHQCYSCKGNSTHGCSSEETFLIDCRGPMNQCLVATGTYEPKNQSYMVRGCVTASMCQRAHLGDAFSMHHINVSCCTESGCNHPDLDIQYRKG

In the first experiment the target is T1, human uPAR on the surface of MDA-MB-231 cells (Homo sapiens (endogenous, MDA-MB-231), UniProt Q03405). Description: cell-based or functional assay.
T1 sequence (Q03405 23-305): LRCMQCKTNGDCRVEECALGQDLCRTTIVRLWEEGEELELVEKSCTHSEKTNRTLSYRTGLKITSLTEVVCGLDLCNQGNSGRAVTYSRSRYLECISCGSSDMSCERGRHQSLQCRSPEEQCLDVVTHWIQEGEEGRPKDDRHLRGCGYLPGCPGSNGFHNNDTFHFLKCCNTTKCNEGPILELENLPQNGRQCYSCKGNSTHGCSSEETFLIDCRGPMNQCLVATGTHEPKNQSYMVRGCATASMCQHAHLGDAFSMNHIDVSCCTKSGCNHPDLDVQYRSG
Take B1: the “ADCC against MDA-MB-231 cells with NK-92 MI CD16a effector cells, EC50” value (“ADCC … with NK-92 MI CD16a effector cells, EC50” for short) is 5590 pM; the “ADCC against MDA-MB-231 cells with NK-92 MI CD16a effector cells, Max%” value (from here on “ADCC … with NK-92 MI CD16a effector cells, Max%”) came out at 27.2%; the “ADCC against MDA-MB-231 cells with human PBMCs, EC50” value (from here on “ADCC … with human PBMCs, EC50”) came to 350 pM; the “ADCC against MDA-MB-231 cells with human PBMCs, Max%” value (“ADCC … with human PBMCs, Max%” below) is 52%.

Turning to B2, the “ADCC … with NK-92 MI CD16a effector cells, EC50” value was 890 pM; the “ADCC … with NK-92 MI CD16a effector cells, Max%” value was 28.2%; the “ADCC … with human PBMCs, EC50” value was 110 pM; the “ADCC … with human PBMCs, Max%” value is 47.4%.

With B3, the “ADCC … with NK-92 MI CD16a effector cells, EC50” value worked out at 1140 pM; the “ADCC … with NK-92 MI CD16a effector cells, Max%” value is 18.8%; the “ADCC … with human PBMCs, EC50” value was 90 pM; the “ADCC … with human PBMCs, Max%” value was found to be 57.5%.

Another experiment has as its target T1, human uPAR on the surface of MDA-MB-231 …. Put plainly: flow cytometry on cells. (In general: In flow cytometry, cells or beads pass a laser one at a time.)
B1 returned an EC50 of 2070 pM.

B2 had an EC50 of 920 pM.

Molecule B3 yielded an EC50 of 690 pM.

In a further experiment the target is recombinant human soluble uPAR (suPAR) (human, UniProt Q03405, biotin (in the BLI experiments)). Put plainly: ELISA. (In general: ELISA stands for enzyme-linked immunosorbent assay.)
Chain of recombinant human soluble uPAR (suPAR) (Q03405 23-305): as above
Turning to B1, the EC50 stood at 520 pM.

Consider B2, for which the EC50 was 530 pM.

As to B3, the EC50 was determined as 410 pM.

A further experiment has as its target cynomolgus monkey uPAR (Macaca fascicularis, UniProt Q9GK78). Put plainly: ELISA.
In turn, B1 registered an EC50 of 180 pM.

The molecule B2 gave an EC50 of 270 pM.

Take B3: the EC50 is 150 pM.

For orientation: EC50 means the concentration at which the effect is half-maximal.

The values are drawn from publication PMC9988344 (mAbs, 2023).
